Data set [1] deals with T1, CsTAL (Clostridium scatologenes, UniProt A0A0E3M5J5).
T1 construct: gene CSCA_1088; recombinant, pET-28a(+), N-terminal His6 tag, E. coli BL21(DE3), Ni-NTA
T1 sequence (A0A0E3M5J5 1-281): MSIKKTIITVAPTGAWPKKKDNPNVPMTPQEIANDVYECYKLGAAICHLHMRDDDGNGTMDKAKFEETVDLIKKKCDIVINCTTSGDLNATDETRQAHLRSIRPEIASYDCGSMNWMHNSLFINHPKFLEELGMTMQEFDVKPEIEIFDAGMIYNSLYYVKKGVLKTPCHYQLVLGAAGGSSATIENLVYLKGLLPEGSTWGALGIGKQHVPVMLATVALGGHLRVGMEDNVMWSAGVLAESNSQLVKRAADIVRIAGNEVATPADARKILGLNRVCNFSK
Description: coupled assays (PfHBDH or CaHAD), NADH at […] nm. In kind it is biochemical. The note with it: 50 mM Tris-HCl pH 7.5, room temperature.

Substrate in data set [2]: O=C1CC(=O)CC(O)C1
Put plainly: purified protein. In kind it is biochemical, Clostridium scatologenes. As to conditions: 2 mM Mn2+, 50 mM Tris-HCl pH 7.5, room temperature.

Substrate in data set [3]: NC(=O)C1=CN([C@@H]2O[C@H](COP(=O)(O)OP(=O)(O)OC[C@H]3O[C@@H](n4cnc5c(N)ncnc54)[C@H](O)[C@@H]3O)[C@@H](O)[C@H]2O)C=CC1
Put plainly: purified protein. In kind it is biochemical, Clostridium scatologenes. As to conditions: 2.0 mM triacetate (saturating), 50 mM Tris-HCl pH 7.5, room temperature.

Substrate in data set [4]: NC(=O)C1=CN([C@@H]2O[C@H](COP(=O)(O)OP(=O)(O)OC[C@H]3O[C@@H](n4cnc5c(N)ncnc54)[C@H](OP(=O)(O)O)[C@@H]3O)[C@@H](O)[C@H]2O)C=CC1
Put plainly: purified protein. The note with it: 50 mM Tris-HCl pH 7.5, room temperature. In kind it is biochemical, Clostridium scatologenes.

Substrate in data set [5]: CC(=O)CC(=O)CC(=O)O
Put plainly: purified protein. In kind it is biochemical, Clostridium scatologenes. As to conditions: 1.0 mM NADPH, 50 mM Tris-HCl pH 7.5, room temperature.

Substrate in data set [6]: CC(=O)CC(=O)O
Description: purified protein. In kind it is biochemical, Clostridium scatologenes. The note with it: 1.0 mM NADPH, 50 mM Tris-HCl pH 7.5, room temperature.

Substrate in data set [7]: Oc1cc(O)cc(O)c1
Description: purified protein. The note with it: co-substrate NADPH, 50 mM Tris-HCl pH 7.5, room temperature.

Take `CC(=O)CC(=O)CC(=O)O` [TAA, 3,5-dioxohexanoate]: the “coupled assays (PfHBDH or CaHAD), NADH at 340 nm” value in data set [1] (co-substrate acetyl-CoA) was “Incubation of CsTAL with triacetate and acetyl-CoA resulted in the formation of acetoacetate and acetoacetyl-CoA”.
With `CC(=O)SCCNC(=O)CCNC(=O)[C@H](O)C(C)(C)COP(=O)(O)OP(=O)(O)OC[C@H]1O[C@@H](n2cnc3c(N)ncnc32)[C@H](O)[C@@H]1OP(=O)(O)O` [acetyl-CoA], the “coupled assays (PfHBDH or CaHAD), NADH at 340 nm” value in data set [1] (co-substrate triacetate) was “Incubation of CsTAL with triacetate and acetyl-CoA resulted in the formation of acetoacetate and acetoacetyl-CoA”.

B1: CsDPGC (Clostridium scatologenes) (protein)
chain: MGKKVYVDLTHPFSADIPRWPYFVKPVIDSMHSLAKGGVLTQRIDCVQHTGTHCDAPRHVMETEFNGKRARYTHEMPVDAYMGDAVCLEIKAGRWELITAAHLEDACKRANIKPEELEGMVVCLNTGMHRKFDDSKEYYHYSCGTGVEAGKWFVKYKVKCVAMDMQALDHPLHTAMGNNGATRLNLLGASGKPITEEYKEQFGEEAYAEFDKDEYIRIHGKEAYDAKFGDLEEIGCWGTWEPCHKEMLGHGIVGVENLGGDLDKVSGKRFRFLCLPIRWYMGDGSMVRCVAEIDEDNVNKDVADRVYTYGGF
notes: recombinant, pET-28a(+), N-terminal His6 tag, E. coli BL21(DE3), Ni-NTA; mostly apo as purified, Mn2+ added
In the case of B1, in data set [2], the Km worked out at 190 ± 40 µM and the kcat amounted to 1.04 ± 0.10 s⁻¹.

B2: CsTfD (Clostridium scatologenes) (protein)
chain: MGSIIKNITVFGPGMMGSGIAQVFAGCKDSHVTVFIREKFEYECIDKIKGNLQVMKEKGIVTDADIAELFSRITLTEDMKAATKDADFIIECIPENMELKQNLFKNLEDLCREDTIFATNTSVMSITEISEKSKLKTRIVGTHFWNPPYLIPLVEVVKSDYTSEEVMNKTMELLKTVKKHPIRVNKDVPGFVANRLQHALWREAISIVENGIADAKTVDEAVKYSFGLRLPHLGPIENADMVGTDLTLSIHDYILKHLDKSIEAAPIVRKMVEAGELGFKSGKGFQEWTPEQAKASNESLREYLLKVLYGK
notes: recombinant, codon-optimized synthetic gene, pET-28a(+), N-terminal His6 tag, E. coli BL21(DE3), Ni-NTA
For B2, the Km in data set [3] came to 130 µM; in data set [4] (2.0 mM triacetate (saturating)) it was 1700 µM; in data set [5] it was 550 µM; in data set [6], 3690 µM.

B3: CsPGR (Clostridium scatologenes) (protein)
chain: MVDKKLINNLFDVKGKVALLTGATGALGKAVAFGYGQAGMKVFITGRSDDKCKALCNELKVDGIECGYSIGDPAIEADVIKIVDDCVAKFGEINVLLTAAGYNHPQPIVEQDLTEWQKIMNSDVQGTWLFCKYVGQKMIDQGKGGKVILVSSARSKMGMAGYTGYCTAKAGIDLMAQSLACEWTAKYGINVNTINPTVFRSDLTEWMFDPESAVYKNFLRRLPIGRLGEPEDFVGPCIFLASSASDFMTGANVATEGGYWAN
notes: recombinant, pET-28a(+), N-terminal His6 tag, E. coli BL21(DE3), Ni-NTA
As for B3, the values for the Km in data set [7] and in data set [4] (co-substrate phloroglucinol) were 300 µM and 210 µM, respectively. In addition, the kcat in data set [7] and in data set [4] (co-substrate phloroglucinol) was 22.4 to 25.3 s⁻¹ throughout.

By Km is commonly meant the substrate concentration at which the rate is half of its maximum. The kcat is the maximal rate divided by the concentration of active sites.

(Values after article PMC10470551 (mBio, 2023).)
